Measured values published in PMC2904749.

What was measured:
[1] = molecular target: human βB2-crystallin Q162E (human); test: dynamic light scattering
[2] = molecular target: human βB2-crystallin Q162E (human); test: small angle X-ray scattering
[3] = molecular target: human βB2-crystallin Q70E (human); test: dynamic light scattering
[4] = molecular target: human βB2-crystallin Q70E (human); test: small angle X-ray scattering
[5] = molecular target: human βB2-crystallin doubly deamidated mutant Q70EQ162E (human); test: dynamic light scattering
[6] = molecular target: human βB2-crystallin doubly deamidated mutant Q70EQ162E (human); test: small angle X-ray scattering

A stoichiometry N [1] of 2 and a stoichiometry N [2] of 2 were found for “human βB2-crystallin Q162E (natural protein)” in this work.
A stoichiometry N [3] of 2 and a stoichiometry N [4] of 2 were found for “human βB2-crystallin Q70E (natural protein)” in this work.
A stoichiometry N [5] of 2 and a stoichiometry N [6] of 2 were found for “human βB2-crystallin doubly deamidated mutant Q70EQ162E (natural protein)” in this work.
